Test system: peptide library, one residue held at a place counted from the S/T acceptor
Experiment: relative phosphorylation of the sub-library (ratio to the mean residue at this position); human; higher = residue favoured
Conditions: H fixed; at -5
Procedure, shortened: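 Spots on streptavidin membranes were phosphorimaged and quantified by densitometry to measure phosphorylation of biotinylated degenerate peptide sub-libraries by purified recombinant kinases, human or orthologue constructs. The reactions ran in 384-well plates for 90 min under kinase-specific conditions, with peptides at 50 μM and 50 μM ATP spiked with γ-32P-ATP. Relative sub-library phosphorylation is the ratio to the mean residue at that position.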

CAMK2D, construct: Full length, sequence (Q13557 whole entry, looked up): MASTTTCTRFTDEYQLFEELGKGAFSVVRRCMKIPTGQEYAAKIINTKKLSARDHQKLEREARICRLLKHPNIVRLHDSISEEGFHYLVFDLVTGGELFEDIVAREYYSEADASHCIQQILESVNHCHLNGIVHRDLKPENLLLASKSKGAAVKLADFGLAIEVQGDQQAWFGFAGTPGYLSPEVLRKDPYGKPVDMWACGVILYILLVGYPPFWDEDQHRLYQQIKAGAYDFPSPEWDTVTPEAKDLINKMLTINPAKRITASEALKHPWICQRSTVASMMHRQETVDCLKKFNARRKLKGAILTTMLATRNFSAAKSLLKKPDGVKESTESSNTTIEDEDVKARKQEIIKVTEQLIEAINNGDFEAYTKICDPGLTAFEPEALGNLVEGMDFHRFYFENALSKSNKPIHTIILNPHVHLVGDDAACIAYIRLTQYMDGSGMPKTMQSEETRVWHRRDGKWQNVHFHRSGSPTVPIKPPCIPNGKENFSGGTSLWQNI
CSNK1A1L, construct: Full length, sequence (Q8N752 whole entry, looked up): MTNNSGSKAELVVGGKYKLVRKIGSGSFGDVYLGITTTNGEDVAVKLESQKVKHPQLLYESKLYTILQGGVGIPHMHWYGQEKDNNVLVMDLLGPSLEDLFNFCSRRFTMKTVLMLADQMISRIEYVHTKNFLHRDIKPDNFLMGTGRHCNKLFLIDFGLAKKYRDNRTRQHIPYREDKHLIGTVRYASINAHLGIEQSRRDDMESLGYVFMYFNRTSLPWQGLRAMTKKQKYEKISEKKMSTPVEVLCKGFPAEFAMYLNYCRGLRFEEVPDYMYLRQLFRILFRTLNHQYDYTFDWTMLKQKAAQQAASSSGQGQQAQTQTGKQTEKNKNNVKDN
ACVR1B, construct: aa150-end, sequence (P36896 150-505, looked up): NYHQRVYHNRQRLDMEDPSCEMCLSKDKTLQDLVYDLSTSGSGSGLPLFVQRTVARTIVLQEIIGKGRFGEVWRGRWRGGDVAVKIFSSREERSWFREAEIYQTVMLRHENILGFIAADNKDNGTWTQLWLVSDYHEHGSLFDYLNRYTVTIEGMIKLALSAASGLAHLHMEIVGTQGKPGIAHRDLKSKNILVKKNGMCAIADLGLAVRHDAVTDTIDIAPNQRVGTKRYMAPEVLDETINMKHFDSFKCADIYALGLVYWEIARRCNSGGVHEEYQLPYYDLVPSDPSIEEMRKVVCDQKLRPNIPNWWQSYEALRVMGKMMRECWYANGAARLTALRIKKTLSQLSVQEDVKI
CSNK1G3, construct: Full length, sequence (Q9Y6M4 whole entry, looked up): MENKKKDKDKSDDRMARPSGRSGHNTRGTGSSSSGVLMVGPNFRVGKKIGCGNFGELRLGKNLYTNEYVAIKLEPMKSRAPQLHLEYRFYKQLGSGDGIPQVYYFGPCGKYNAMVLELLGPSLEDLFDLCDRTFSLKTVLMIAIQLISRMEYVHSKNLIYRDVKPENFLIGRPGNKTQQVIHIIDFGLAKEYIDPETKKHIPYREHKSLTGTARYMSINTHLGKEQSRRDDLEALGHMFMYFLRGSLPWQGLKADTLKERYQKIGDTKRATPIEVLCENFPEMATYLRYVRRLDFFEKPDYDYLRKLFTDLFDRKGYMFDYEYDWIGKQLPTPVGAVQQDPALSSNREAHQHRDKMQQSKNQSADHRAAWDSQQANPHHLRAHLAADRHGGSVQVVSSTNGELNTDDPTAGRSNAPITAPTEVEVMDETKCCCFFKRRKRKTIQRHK
CIT, construct: aa1-449, sequence (O14578 1-449, looked up): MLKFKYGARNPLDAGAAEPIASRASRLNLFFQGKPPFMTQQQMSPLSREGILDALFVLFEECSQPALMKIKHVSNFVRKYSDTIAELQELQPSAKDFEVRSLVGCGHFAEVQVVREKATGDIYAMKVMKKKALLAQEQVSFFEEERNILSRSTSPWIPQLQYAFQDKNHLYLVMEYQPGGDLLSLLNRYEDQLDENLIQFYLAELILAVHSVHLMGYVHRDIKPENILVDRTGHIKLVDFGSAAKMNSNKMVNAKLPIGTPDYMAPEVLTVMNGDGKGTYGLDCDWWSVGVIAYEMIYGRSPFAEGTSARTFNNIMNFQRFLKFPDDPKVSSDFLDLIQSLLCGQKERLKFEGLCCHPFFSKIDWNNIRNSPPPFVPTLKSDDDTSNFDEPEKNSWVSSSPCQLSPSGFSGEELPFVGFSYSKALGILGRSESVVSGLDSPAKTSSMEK
CDKL1, construct: aa2-304, sequence (Q00532 2-304, looked up): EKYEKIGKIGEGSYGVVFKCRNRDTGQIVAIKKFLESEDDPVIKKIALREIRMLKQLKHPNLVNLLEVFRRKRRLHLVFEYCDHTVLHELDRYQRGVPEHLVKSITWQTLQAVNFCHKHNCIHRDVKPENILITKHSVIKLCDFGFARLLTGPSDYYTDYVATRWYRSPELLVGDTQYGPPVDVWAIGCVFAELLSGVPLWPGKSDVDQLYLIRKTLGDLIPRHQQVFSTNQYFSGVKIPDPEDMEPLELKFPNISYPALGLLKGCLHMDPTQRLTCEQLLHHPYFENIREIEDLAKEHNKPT
TSSK1B, construct: Full length, sequence (Q9BXA7 whole entry, looked up): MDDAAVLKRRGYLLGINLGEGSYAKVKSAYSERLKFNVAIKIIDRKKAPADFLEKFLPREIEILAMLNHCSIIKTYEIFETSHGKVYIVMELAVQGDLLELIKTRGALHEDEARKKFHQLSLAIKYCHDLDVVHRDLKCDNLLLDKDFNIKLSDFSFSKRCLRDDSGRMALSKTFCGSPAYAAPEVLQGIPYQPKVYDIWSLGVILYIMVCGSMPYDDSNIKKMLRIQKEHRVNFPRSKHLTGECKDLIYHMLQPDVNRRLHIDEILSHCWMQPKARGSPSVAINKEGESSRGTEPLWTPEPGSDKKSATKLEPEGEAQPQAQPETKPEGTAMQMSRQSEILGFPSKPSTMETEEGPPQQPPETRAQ
PAK1, construct: aa150-end, sequence (Q13153 150-545, looked up): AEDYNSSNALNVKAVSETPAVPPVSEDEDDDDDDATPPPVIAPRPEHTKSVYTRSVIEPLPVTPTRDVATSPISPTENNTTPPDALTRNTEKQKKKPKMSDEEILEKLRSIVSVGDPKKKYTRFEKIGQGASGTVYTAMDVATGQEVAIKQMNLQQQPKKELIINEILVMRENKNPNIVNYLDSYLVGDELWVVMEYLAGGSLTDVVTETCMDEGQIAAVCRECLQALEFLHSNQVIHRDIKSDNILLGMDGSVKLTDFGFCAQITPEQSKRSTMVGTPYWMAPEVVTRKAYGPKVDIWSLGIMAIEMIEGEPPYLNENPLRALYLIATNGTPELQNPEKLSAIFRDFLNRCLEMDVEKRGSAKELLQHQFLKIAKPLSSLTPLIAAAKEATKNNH

Substance	relative phosphorylation
CDKL1, construct: aa2-304 (from UniProt Q00532)	0.987
ACVR1B, construct: aa150-end (from UniProt P36896)	1.24
TSSK1B, construct: Full length (from UniProt Q9BXA7)	0.57
CSNK1A1L, construct: Full length (from UniProt Q8N752)	0.985
CSNK1G3, construct: Full length (from UniProt Q9Y6M4)	0.988

Same assay, conditions: I fixed; at +1

Substance	relative phosphorylation
CIT, construct: aa1-449 (from UniProt O14578)	0.914
PAK1, construct: aa150-end (from UniProt Q13153)	1.03
CAMK2D, construct: Full length (from UniProt Q13557)	1.93
CDKL1, construct: aa2-304 (from UniProt Q00532)	0.732
ACVR1B, construct: aa150-end (from UniProt P36896)	1.21
TSSK1B, construct: Full length (from UniProt Q9BXA7)	0.854
CSNK1A1L, construct: Full length (from UniProt Q8N752)	1.87
CSNK1G3, construct: Full length (from UniProt Q9Y6M4)	1.81

Same assay, conditions: I fixed; at +2

Substance	relative phosphorylation
CIT, construct: aa1-449 (from UniProt O14578)	0.884
PAK1, construct: aa150-end (from UniProt Q13153)	1.1
CAMK2D, construct: Full length (from UniProt Q13557)	0.599
CDKL1, construct: aa2-304 (from UniProt Q00532)	0.881
ACVR1B, construct: aa150-end (from UniProt P36896)	1.13
TSSK1B, construct: Full length (from UniProt Q9BXA7)	1.56
CSNK1A1L, construct: Full length (from UniProt Q8N752)	1.66
CSNK1G3, construct: Full length (from UniProt Q9Y6M4)	1.02

Same assay, conditions: I fixed; at +3

Substance	relative phosphorylation
CIT, construct: aa1-449 (from UniProt O14578)	0.866
PAK1, construct: aa150-end (from UniProt Q13153)	0.826
CAMK2D, construct: Full length (from UniProt Q13557)	0.699
CDKL1, construct: aa2-304 (from UniProt Q00532)	0.865
ACVR1B, construct: aa150-end (from UniProt P36896)	1.06
TSSK1B, construct: Full length (from UniProt Q9BXA7)	0.66
CSNK1A1L, construct: Full length (from UniProt Q8N752)	1.19
CSNK1G3, construct: Full length (from UniProt Q9Y6M4)	0.58

Same assay, conditions: I fixed; at +4

Substance	relative phosphorylation
CIT, construct: aa1-449 (from UniProt O14578)	0.948
PAK1, construct: aa150-end (from UniProt Q13153)	0.773
CAMK2D, construct: Full length (from UniProt Q13557)	0.705
CDKL1, construct: aa2-304 (from UniProt Q00532)	0.856
ACVR1B, construct: aa150-end (from UniProt P36896)	0.855
TSSK1B, construct: Full length (from UniProt Q9BXA7)	2.06
CSNK1A1L, construct: Full length (from UniProt Q8N752)	1.03
CSNK1G3, construct: Full length (from UniProt Q9Y6M4)	0.696

Same assay, conditions: I fixed; at -1

Substance	relative phosphorylation
CIT, construct: aa1-449 (from UniProt O14578)	0.394
PAK1, construct: aa150-end (from UniProt Q13153)	0.564
CAMK2D, construct: Full length (from UniProt Q13557)	0.699
CDKL1, construct: aa2-304 (from UniProt Q00532)	0.644
ACVR1B, construct: aa150-end (from UniProt P36896)	1
TSSK1B, construct: Full length (from UniProt Q9BXA7)	0.502
CSNK1A1L, construct: Full length (from UniProt Q8N752)	0.879
CSNK1G3, construct: Full length (from UniProt Q9Y6M4)	1.39

Same assay, conditions: I fixed; at -2

Substance	relative phosphorylation
CIT, construct: aa1-449 (from UniProt O14578)	0.693
PAK1, construct: aa150-end (from UniProt Q13153)	0.551
CAMK2D, construct: Full length (from UniProt Q13557)	0.547
CDKL1, construct: aa2-304 (from UniProt Q00532)	0.96
ACVR1B, construct: aa150-end (from UniProt P36896)	0.622
TSSK1B, construct: Full length (from UniProt Q9BXA7)	0.661
CSNK1A1L, construct: Full length (from UniProt Q8N752)	0.847
CSNK1G3, construct: Full length (from UniProt Q9Y6M4)	0.963

Same assay, conditions: I fixed; at -3

Substance	relative phosphorylation
CIT, construct: aa1-449 (from UniProt O14578)	0.251
PAK1, construct: aa150-end (from UniProt Q13153)	0.41
CAMK2D, construct: Full length (from UniProt Q13557)	0.575
CDKL1, construct: aa2-304 (from UniProt Q00532)	0.537
ACVR1B, construct: aa150-end (from UniProt P36896)	0.855
TSSK1B, construct: Full length (from UniProt Q9BXA7)	0.421
CSNK1A1L, construct: Full length (from UniProt Q8N752)	0.965
CSNK1G3, construct: Full length (from UniProt Q9Y6M4)	0.467

Same assay, conditions: I fixed; at -4

Substance	relative phosphorylation
CIT, construct: aa1-449 (from UniProt O14578)	0.612
PAK1, construct: aa150-end (from UniProt Q13153)	0.529
CAMK2D, construct: Full length (from UniProt Q13557)	0.946
CDKL1, construct: aa2-304 (from UniProt Q00532)	0.883
ACVR1B, construct: aa150-end (from UniProt P36896)	0.874
TSSK1B, construct: Full length (from UniProt Q9BXA7)	0.677
CSNK1A1L, construct: Full length (from UniProt Q8N752)	1.13
CSNK1G3, construct: Full length (from UniProt Q9Y6M4)	0.714

Same assay, conditions: I fixed; at -5

Substance	relative phosphorylation
CIT, construct: aa1-449 (from UniProt O14578)	1.09
PAK1, construct: aa150-end (from UniProt Q13153)	0.55
CAMK2D, construct: Full length (from UniProt Q13557)	1.11
CDKL1, construct: aa2-304 (from UniProt Q00532)	0.961
ACVR1B, construct: aa150-end (from UniProt P36896)	0.837
TSSK1B, construct: Full length (from UniProt Q9BXA7)	1.61
CSNK1A1L, construct: Full length (from UniProt Q8N752)	1.1
CSNK1G3, construct: Full length (from UniProt Q9Y6M4)	0.82

Same assay, conditions: K fixed; at +1

Substance	relative phosphorylation
CIT, construct: aa1-449 (from UniProt O14578)	0.779
PAK1, construct: aa150-end (from UniProt Q13153)	1.18
CAMK2D, construct: Full length (from UniProt Q13557)	0.476
CDKL1, construct: aa2-304 (from UniProt Q00532)	1.25
ACVR1B, construct: aa150-end (from UniProt P36896)	0.542
TSSK1B, construct: Full length (from UniProt Q9BXA7)	1.43
CSNK1A1L, construct: Full length (from UniProt Q8N752)	0.883
CSNK1G3, construct: Full length (from UniProt Q9Y6M4)	0.778

Same assay, conditions: K fixed; at +2

Substance	relative phosphorylation
CIT, construct: aa1-449 (from UniProt O14578)	0.694
